Assay: yeast display, Sf9 membrane polyspecificity reagent, FACS + sequencing; frameworks hold sequencing errors
Summary of the method: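 Nanobodies came from a synthetic yeast display library in Saccharomyces cerevisiae BJ5465, induced with galactose for 36–48 hours and stained for 1 hour at 4 °C with 10% biotinylated, detergent-solubilized Sf9 membrane reagent. Cells were enriched on streptavidin microbeads and then FACS-sorted, with low and high (top ~1%) gates set on anti-HA fluorescence for expression and streptavidin fluorescence for reagent binding. Each polyreactivity label reflects the gate a clone came from. Genes were amplified by colony PCR, sequenced by MiSeq 2 × 250 and filtered by CDR length.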

Sequence: QVQLVESGGGLVQAGGSLRLSCAASGSTLDVYAMGWYRQAPGKERELVAAISWSVGSTYYAYSVKGRFKISRDNAKNTVYLQINRLKPEDTAVYNCAAEQYEYAYDGYDYWGQGTQVTVSS
- polyreactivity (PSR sort gate): high polyreactivity

Sequence: QVQHVESGGGLVQAGGSLRLSCAASGSTFAFNTMGWYRQSPGKEWELVAGISSNGGRTYYADSVNGRFTISRDNAKNTVYLQMNSLKPEDTAVYYCNRASVFHYRWYYYWGQGTQVTVSS
- polyreactivity (PSR sort gate): high polyreactivity

Sequence: QVQLVDSGGGLVQAGGSLRLSCAASGSTFRYNAMGWYRQAPGKERELVAAIDKRGDSTYADSVKGRFTISRDNAKNTVYLQLNSLKPEDTAVYYCAADSDSKYNYGFLWDTYEYWGQGTQVTVSS
- polyreactivity (PSR sort gate): low polyreactivity

Sequence: QVQLVESGGGLVQAGGSLRLSCAASGRSFLGYPMGWYRQAARKERELVAAISSSGTSTYYADSVKGRFTISRDNAQNTVYLQMNSLKPEETSVYYCAKYAYSYYPPAYDYWGQGTKVTVSS
- polyreactivity (PSR sort gate): high polyreactivity

Sequence: QVQLVESGGGLVQAGGSLRLSCAASGLTFVRYAMGWYRQAPGKERELVAVISYSGARTYYADSVKGRFTISRDNAKNTVYLQMNSLKPEDTAVYYCAATFRGTFRRIWTDTRAYDYWGQGTQVTVSS
- polyreactivity (PSR sort gate): high polyreactivity

Sequence: QVQLVESGGGLVQAGGSLRLSCAASGSTFSVNAMGWYRQAPGKERELVAAITYSGGSTYYADSVKGRFTISRDNAKNTVYLQMNSLKPEDTAVYYCAAEARYWIYEYDYWGQGTQVTVSS
- polyreactivity (PSR sort gate): high polyreactivity

Sequence: QVQLVESGGGLVQAGGSLRLSCAASGSTLYRYAMGWYRQAPGKERELVAAISSSGGSTYYADSVKGRFTISRDNAKNTVYLQMNSLKPEDTAVYYCAATSSFYFILYDYWGQGTQVTVSS
- polyreactivity (PSR sort gate): high polyreactivity

Sequence: QVQLVESGGGLDQARGSLRLSCAASAPTFNSNAMGWYRQAPGKERDLVADINGGGSTYYADSVKGRFTISRDNAKNTVYLQMNSLKPEDTAVYYCAKCYTWYVWYPHGYWGQGTQVTVSS
- polyreactivity (PSR sort gate): low polyreactivity

Sequence: QVQLVESGGGLVQAGGSLRLSCAASGSIFSYYVMGWYRQAPGKERELVARINWSSTSTYYADSVKGRFTISRDNAKNTVYLQMNSLKPEDTAVYYCAAAKRYGRYYEYDYWGQGTQVTVSS
- polyreactivity (PSR sort gate): high polyreactivity

Sequence: QVQLVESGGGLVQAGGSLRLSCADSGFIFTVNAMGLYRQAPGKERELVAAITSGGNTYYADSVKGRFTISRDNAKNTVYLQMNSLKPEDAAVYYCNAVFYTWSPYGTTVRSYGYWGQGTQVTVSS
- polyreactivity (PSR sort gate): high polyreactivity

Sequence: QVQLVESGGALDQAGGSLRLSCAASGSTFISNAMGWYRQAPGKERELVAAISSGGGRTSYADSVKGRFTISRDNANNTVYLQMNSLKPEDTAVYYCNTKKLPYAEGYWGQGTQVTVSS
- polyreactivity (PSR sort gate): low polyreactivity

Sequence: QVQLVESGGGLVQAGGSLRLSCAASGRIFVGYAMGWYRQAPGKVREFFAAITWSGGSTSYADSVKGRFTISRDNAKNTVYLQKNSLKPEDTAVYYCNARRYYYFGLSLYEYDYWGQGTQVTVSS
- polyreactivity (PSR sort gate): low polyreactivity

Sequence: QVQLVESGGGLVQAGGSLRLSCAASGRTFVGNAMGWYRQAPGKERELVAAISGRGGSTKYADSVKGRFTISRDYAKNTVYLQMNSLKPEYTAVYYCNAPRNYYKNRAYEYWGQGTKVTVSS
- polyreactivity (PSR sort gate): high polyreactivity

Sequence: QVQLVDSGGGLVQAGGSLRLSCASSGRIFHGYAMGWYRHAPGKERELVAAIDEDGGSTYYADSVKGRFTISRDNAKNTVYLQMNSLKPEDTAVYYCATDALYTYGYDYWGQGTQVTVSS
- polyreactivity (PSR sort gate): low polyreactivity

Sequence: QVQLQESGGGLVKAGGSLRLSCAASGSISNSAAMGWYRQAPGKERELVVSIGHGASSNYADSVKGRFTISRDNAKNTVYLQMNSLKPEDTAVYYCAAYPGFLDGFFYWGQSTQVTVSS
- polyreactivity (PSR sort gate): high polyreactivity

Sequence: QVQLVESGGGLVQAGGSLRLSCAASGSIFRYYAMGWYRQAPGKERELVASIRRGDSTYYADSVKGRFTISRDNAKNTVYLQMNSLKPEDTAVYYCAARFFWPQRGGYWGQGTQVTVSS
- polyreactivity (PSR sort gate): high polyreactivity

Sequence: QVQLVESGGGLVQAGGSLRLRCAASGSIFPWYAMGWYRQAPGKERELVAAITISGGSTHYADSVKGRFTISRDNAKNTVYLQMNCLKPEDTAVYYCATPRYPSYDYWGQGTQVTVSS
- polyreactivity (PSR sort gate): low polyreactivity

Sequence: QVQLVESGGGLVQAGGSLRLSCAASGFIFTSYAMGWYRQAPGKERELVAAIDYSGGSTYYADSVKGRFTISRDNAKNTVYLQMNSLKPEDTAVYYCAAGDGLWPGSQTYDYWGQGTQVTVSS
- polyreactivity (PSR sort gate): low polyreactivity

Sequence: QVQLVDSGGGLVQAGGSLSLSCAASGRTFYPYAMGWYRQAPGKERELVARISRGGRTNYADSVKGRFTISRDNAKNTVYLQMNSLKPEDTAVYYCAAVYYGSYFITEDYWGQGTQVTVSS
- polyreactivity (PSR sort gate): low polyreactivity

Sequence: HVQLVESGGGLVQAGGSLRLSCDASGRTFYRYVIGWYRQAPGKERELVAAISKSDGSSYYADSVKGRFTISRDNAKNTVYLQMNSLKPEDTAVYYCAAQYPTFYSPRPFNYWGQGTQVTVSS
- polyreactivity (PSR sort gate): high polyreactivity

Sequence: QVQLVESGGGLVQAGGSLRLSCAASGLIIRNYAMGWYRPAPGKERELVAAISYNGGSTYYADSVKGRFTISRDNAKNTVYLQMNSLKPEDTAVYYCAAYYGVGYRRYYYWGQGTQVTVSS
- polyreactivity (PSR sort gate): high polyreactivity

Sequence: QVQLVESGGGLVQAGGSLRLSCAASGFTFKYNAMGWYRQAPGKERELVASISSGSTNYADSVKGRFTISRDNAKNTVYLQMNSLKPEDTAVYYCAASVSRGKRFRYGYVFKMDYWGQGTQVTVSS
- polyreactivity (PSR sort gate): low polyreactivity

Sequence: QVQLVESGGGLVQAGGSLRLSSADSGFIFSYYAMGWYRQAPGKERELVAAISSVGSTNYADSVKGRFTISRDNAKNTVYLQMNSLKPEDTAVYYCAARYLWYKYYYWGQGTQVTVSS
- polyreactivity (PSR sort gate): high polyreactivity

Sequence: QVQLVESGGGLVQAGGSLRLSCDASGRPFRRNAMGWYRQAPGKERELVAAITLSGGRTYADSLKGRFTISRDNAKNTVYLQMNSLKPEDTAVYYCAASSPGFSYWYNGYEYWGEGTQVTVSS
- polyreactivity (PSR sort gate): high polyreactivity

Sequence: QVHLVESGGGLVQAGVSLRLSCAASGLTFGPYAMGWYRQAPGKERELVAAITSGGNTNYADSVKGRFTISRDNAKNTVYLQMNSLKPEDTAVYYCATSYYLAYRSITPYDYWGQGTQVTVSS
- polyreactivity (PSR sort gate): low polyreactivity

Sequence: QVQLVESGGGLVQAGGSLRLSCAASGSTFVPYAMGWYRQAPGKERELVASISWRGGSTSYADSVKGRFTISRDNAKNTVYLQMNSLKPEDTAVYYCAARPRYRYKQDYYYWGQGTQVTVSS
- polyreactivity (PSR sort gate): high polyreactivity

Sequence: QVQLVESGGGLVQAGGSLRLSCSASGSTFTAYAMGWSRQAPGKERELVATISDSGGSTYYADSVKGRFTISRDNAKNTVYLQMNSLKPEDTAVYYCAADVYSYFYQVVYTFDYWGQCTQVTVSS
- polyreactivity (PSR sort gate): low polyreactivity

Sequence: QVQLVESGGGLVQAGGSLRLSCAASGRIYTMGWYRQAPGKERELVAAISKSGGSTSYADSVKGRFTISRDNAKNTVYLQMNSLKPEDTAVYYCAALHYGRYRMDYWGQGTQVTVSS
- polyreactivity (PSR sort gate): high polyreactivity

Sequence: QVQLVESGGGLVQAGGGLRLSCAASGTFKRNAMGWYRQAPGKERELVATITRTGSTTYADSVKGRFTISRDNAKNTVYLQMNSLKPEDTAVYYCAAGYPPEDPEDYWGQGTQVTVSS
- polyreactivity (PSR sort gate): low polyreactivity

Sequence: QVQLVESGGGLVQAGGSLRLSCAASGSTFYFNAMGWSRQAPGKERELVAGISSGGSTYYADSVKGRFTISRDNAKNTVYLQMNSLKPEDTAVYYCAATWLVERPVSYTEYGYWGQGTQVTVSS
- polyreactivity (PSR sort gate): low polyreactivity

Sequence: QVQLVESGGGLVQEGGSLRLSCAASGRTFKKYAMGWYRQAPGKERELVAAITGSGGSTYYADSVKGRFTISRDNAKNTVYLQMNSLKPEDSAVYYCAAYAYGVWHSQDGGNYWGQGTQVTVSS
- polyreactivity (PSR sort gate): low polyreactivity

Sequence: QVQLVESGGGLVQAGGSLRLSCAASGRTFTSYAMGSYRQAPGKERELVAVITRRGGSTSYADSVKGRFTISRDNAKNTVYLQMNSLKPEDTAVYYCAAKRTWPDVNYYYWGQGTQVTVSS
- polyreactivity (PSR sort gate): high polyreactivity

Sequence: QVQLVESGGGLVQAGGSLRLSCAASGLIFGSYAMGWYRQAPGKERELVAAINKSGGSTYYADSVKGRFTISRDNAKNTVYLQMNSLKPEDTAVYYCAKGRSKYYQPGQRDYWGQGTQVTVSS
- polyreactivity (PSR sort gate): high polyreactivity

Sequence: QVQLVESGGGLVQAGGSLRLSCASSGYIFRSYAMGWYRQAPGKERELVATISWIGGGTSYADSVKGRFTISRDNAKNTVYLQMNSLKPEDTAVYYCAAGPWAYGRRHAYYSRSFDYWGQGTQVTVSS
- polyreactivity (PSR sort gate): high polyreactivity

Sequence: QVQLVESGGGLVQAGGSLRLSCAASGSIFPFYAMGWFRQAPGKERELVAAISWSGGSTYYADSVKGRFTISRDNAKNTVYLQMNSLKPEDTAVYYCNRADGYSFSLNRSDYWGQGTQVTVSS
- polyreactivity (PSR sort gate): low polyreactivity

Sequence: QVQLVESGGGLVQAGGSLRLSCAASGRIIIYNAMGWYRQAPGKERQLVAAINRSGVSTHYADSVKGRFTISRDNAKNTVYLQMNSLKPEDTAVYYCARTVYGARSYDYWGQGTQVTVSS
- polyreactivity (PSR sort gate): low polyreactivity

Sequence: QVLLQESGGGLVQAGGSLRLSCAASGNIFTAGGMGWYRQAPVNERELVAGIGTGTSTNYADRVKGRFTISRDNAKNTVYLQMNSLKPEDTAVYYCAPAYYSGLSHWYWGQGTQVTVSS
- polyreactivity (PSR sort gate): low polyreactivity

Sequence: QVQLVESGGGLVQAGGSLRLSCAASGRIVGRHALGWYRQAPGKERELVAAMSSSGGTYYADSVKGRFTISRDKAKNTLYLQMNSLKPEDTAVYYCNARVRTQQRWVDYWGQGTQVTVSS
- polyreactivity (PSR sort gate): high polyreactivity

Sequence: QVQLVESGGGLVQAGGSLRLSCAASGSTLIDYTMGWYRQAPGKERELVAAISSGGSTNYADSVKGRFTISRDNAKNTVYLQMNSLKPEDTAVYYCAKDHQRYFYGFWEHPRYDYWGQGTQVTVSS
- polyreactivity (PSR sort gate): high polyreactivity

Sequence: QDQLEESGGGLVQAGGSLRLSCGASGSIYDTNDMGWYRQAPGKERELVSAISSGGNTNYADSVKGRFTISRDNAKNTVYLQMKSVKPEDTAVYYWAAVWLGVYSVWTYHHYDYWGQGTQVTVSS
- polyreactivity (PSR sort gate): low polyreactivity

Sequence: HDQLVESGGGLLQAGGSLRLSCAASGITLYRYVMGWYRQAPGKERELVAYIAGRGTSTYYSDSVKGRFTISRDHAKNTVYLQMNSLKPEDTAVYFCNAEYTKTGALVIPYTYYYAEDYWGQGTQVTVSS
- polyreactivity (PSR sort gate): low polyreactivity

Sequence: QVQLVESGGGLVQAGGSLRLSCAASGRTFRAYTMGWYRQAPGKERELVAAISTPGGSTYYADSVKGRFTISRDNAKNTVYLQMNSLKPEDTAVYYCAAGTFYYWLSYDYWGQGTQVTVSS
- polyreactivity (PSR sort gate): low polyreactivity

Sequence: QVQLEESGGGLVQAGGSLRIICADSGINFRYNAMGLYRKAPGKERELVAGIRKRGGSTYYADSVKGRFTISRDNANNTVYLQMNSLKPEDTEVYYCAALCPTTGRNYHSTPYEYWGQGTQVTVSS
- polyreactivity (PSR sort gate): high polyreactivity

— the nanobody polyreactivity screen of Harvey et al. (2022)
